Assay results: publication PMC7156744, “CdbA is a DNA-binding protein and c-di-GMP receptor important for nucleoid organization and segregation in Myxococcus xanthus” (Nature Communications, 2020)
Each block holds one molecule with its values, some of them ahead of it.

Tests used:
CdbA = target: T1, CdbA (Myxococcus xanthus, UniProt Q1D489); test: ITC (also DRaCALA, SEC, HDX-MS; EMSA shows inhibition of DNA binding)
T1 construct: gene MXAN_4361; full-length CdbA-His6 (67 amino acids), tetramer

[1] = target: T2, CdbA-His6 (Myxococcus xanthus DK1622) (UniProt Q1D489); test: EMSA; conditions: 10x buffer: 380 mM HEPES, 380 mM NaCl, 50 mM MgCl2, 50% glycerol, 10 mM DTT, 15 ng/ul poly(dI-dC), 50 ng probe, 30 C 30 min, 10% PAGE 1x TBE 4 C, pH not …
T2 sequence: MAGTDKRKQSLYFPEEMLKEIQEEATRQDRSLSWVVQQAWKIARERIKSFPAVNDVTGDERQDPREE

[2] = target: CdbA-His6 (C-terminally His6-tagged CdbA, MXAN_4361) (Myxococcus xanthus); test: SEC; analytical SEC, 200 µM CdbA incubated with 200 µM c-di-GMP for 1 minute at 25 °C, Superdex S200 Increase 10/300 GL, SEC buffer, 4 °C; oligomer size from apparent molecular mass
[3] = target: CdbA-His6 (C-terminally His6-tagged CdbA, MXAN_4361) (Myxococcus xanthus); test: crystal structure; crystal form one (dimeric form) of full-length CdbA-His6, 0.1 M MgCl2, 0.1 M HEPES-NaOH pH 7.0, 15% PEG 4000; SAD phasing with a Pt derivative; residues 5-52 traced
[4] = target: CdbA-His6 (C-terminally His6-tagged CdbA, MXAN_4361) (Myxococcus xanthus); test: as above; remark: listed apart in the source
[5] = target: CdbA-His6 (C-terminally His6-tagged CdbA, MXAN_4361) (Myxococcus xanthus); test: crystal structure; crystal form two (tetrameric form) of full-length CdbA-His6, 0.1 M sodium malonate, 0.1 M HEPES-NaOH pH 7.0, 30% polyacrylic acid sodium salt 2100; molecular replacement; three copies in the asymmetric unit
[6] = target: CdbA-His6 (C-terminally His6-tagged CdbA, MXAN_4361) (Myxococcus xanthus); test: SEC; analytical SEC, 200 µM CdbA wild-type or variant without c-di-GMP, Superdex S200 Increase 10/300 GL, SEC buffer (20 mM HEPES-Na pH 7.5, 200 mM NaCl, 20 mM MgCl2, 20 mM KCl), 4 °C; oligomer size from apparent molecular mass
[7] = target: CdbA^K8A/S10A-His6 (Myxococcus xanthus); test: as above
[8] = target: CdbA^R27A/R30A-His6 (Myxococcus xanthus); test: as above
[9] = tested on: CdbA-His6 (Myxococcus xanthus DK1622); test: EMSA; conditions: 10x buffer: 380 mM HEPES, 380 mM NaCl, 50 mM MgCl2, 50% glycerol, 10 mM DTT, 15 ng/ul poly(dI-dC), 50 ng probe, 30 C 30 min, 10% PAGE 1x TBE 4 C, pH not …

Kd (CdbA): ~83 nM
Molecule: Nc1nc2c(ncn2[C@@H]2O[C@@H]3CO[P@](=O)(O)O[C@H]4[C@@H](O)[C@H](n5cnc6c(=O)[nH]c(N)nc65)O[C@@H]4CO[P@](=O)(O)O[C@H]3[C@H]2O)c(=O)[nH]1 [c-di-GMP]

Molecule: ACTTGGGTCTCCGGGGCGGATTCGGGGTGACGACCTGAACACACCTGGGCCGTTATCCGACAGACTCCCAAGTGGGTCAACGGTTTCCAAGGACTCATTCCGAGGTCGCACGGTCCGTCCCCGTGCTCGTCCAGTTGCACGTAAGCTGTGCAACCATGCGCGAAAAAGGAAACGCCCCGGACTCCACGAGGAAGTCCGGGGCGCTTCGGAAAGAGGGACCGCCTAGAGAAATCTCCAGGCGGGCCCGTGG (double strand) [cdbAB promoter]
Kd [1]: 900 nM

stoichiometry N [2]: 4 | stoichiometry N [3]: 2 | stoichiometry N [4]: 4 | stoichiometry N [5]: 4 | stoichiometry N [6]: 4
Molecule: CdbA-His6 (C-terminally His6-tagged CdbA, MXAN_4361) (natural protein)

stoichiometry N [7]: 4
Molecule: CdbA^K8A/S10A-His6 (natural protein)

stoichiometry N [8]: 4
Molecule: CdbA^R27A/R30A-His6 (natural protein)

Molecule: GACACACCTTCTCCGAGCGGCTTGCGGTGTTCGGGGGACTCGGGCTTGCGCTCGGGTTCGGCGCGGGCCTGCGCGGAGACGCGGAAGCCTTCACTGGGGTTCAGTGGATCTTCCCGGTCGGATCGAAGTGAATTTCTTGCGATCAGACCGACTTGTGAGAATGTACGCGCATCTACAGGAGGTCGCGCACATGGACATGAATCCCCGTCTTACCTCAGTGGTCTTCCGGCTCAACCGCGAGAAGCTCGAC (double strand) [MXAN_4058 promoter, two repeats mutated]
Kd [1]: 2500 nM

Molecule: GACACACCTTCTCCGAGCGGCTTGCGGTGTTCGGGGGACTCGGGCTTGCGCTCGGGTTCGGCGCGGGCCTGCGCGGAGACGCGGAAGCCTTCACTGGGGTTCAGTGGATCTTCCCGGTCGGATCGAAGTGAATTTCTTGCGATCAGACCGACTTGTGAGAATGTGTGCGCATCTACAGGAGGTCGCGCACATGGACATGAATCCCCGTCTTACCTCAGTGGTCTTCCGGCTCAACCGCGAGAAGCTCGAC (double strand) [MXAN_4058 promoter, one repeat mutated]
Kd [1]: 1100 nM

Molecule: GACACACCTTCTCCGAGCGGCTTGCGGTGTTCGGGGGACTCGGGCTTGCGCTCGGGTTCGGCGCGGGCCTGCGCGGAGACGCGGAAGCCTTCACTGGGGTTCAGTGGATCTTCCCGGTCGGATCGAAGTGAATTTCTTGCGATCAGACCGACTTGTGAGAATGTGTGCGCATCTGTAGGAGGTCGCGCACATGGACATGAATCCCCGTCTTACCTCAGTGGTCTTCCGGCTCAACCGCGAGAAGCTCGAC (double strand) [peak rank #1 fragment (MXAN_4058 promoter), WT]
Kd [1]: 400 nM

Molecule: cdbAB promoter
Kd [9]: 900 nM

Molecule: no-peak control fragment
Kd [9]: 4000 nM

Molecule: peak rank #1 fragment (MXAN_4058 promoter), WT
Kd [9]: 400 nM
